Measured values: patent US20150344937A1

Molecular target: murine CD4 (murine) (UniProt P06332)
Experiment: quantitative flow cytometry on murine splenocytes, BD QuantiBrite PE microspheres as standard

Chain of UniProt P06332 (P06332 27-457): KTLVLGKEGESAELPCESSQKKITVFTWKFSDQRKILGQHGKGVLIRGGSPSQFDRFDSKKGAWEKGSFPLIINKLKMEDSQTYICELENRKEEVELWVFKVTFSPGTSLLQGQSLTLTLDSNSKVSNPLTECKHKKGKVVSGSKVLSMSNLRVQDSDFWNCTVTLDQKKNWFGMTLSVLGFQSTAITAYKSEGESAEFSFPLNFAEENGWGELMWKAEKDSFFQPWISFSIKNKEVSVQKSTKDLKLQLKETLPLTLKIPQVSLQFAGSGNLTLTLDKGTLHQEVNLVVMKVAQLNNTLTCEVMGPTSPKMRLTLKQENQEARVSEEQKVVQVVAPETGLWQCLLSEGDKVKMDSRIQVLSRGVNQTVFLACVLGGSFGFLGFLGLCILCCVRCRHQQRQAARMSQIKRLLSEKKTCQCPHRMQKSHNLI

In the case of “Commercially prepared anti-CD4 (clone GK1.5, phycoerythrin conjugate) (antibody)”, the Antibody Binding per Cell (ABC) (CD4 antibody per cell) is reported as 29700.
